According to publication PMC3902948 (Nucleic Acids Research, 2013):

B1: Strep-Ntr1(1–120) (domain or fragment, S. cerevisiae, UniProt Q06411 1-120, looked up)
chain: MEDSDSNTDKKFFFKKRRIDSYNYSDEEDNNSSMNSDMTYTNDALKTSSGNAPTISKLTKTYGIGAKLLSSMGYVAGKGLGKDGSGITTPIETQSRPMHNAGLGMFSNTNSSNYHSENED
B2: Ntr1(51–110) (domain or fragment, S. cerevisiae, UniProt Q06411 51-110, looked up)
chain: NAPTISKLTKTYGIGAKLLSSMGYVAGKGLGKDGSGITTPIETQSRPMHNAGLGMFSNTN

Target: Prp43-Strep (S. cerevisiae, UniProt P53131 1-767)
Experiment: titration of the ATPase activity of Prp43

Chain of Prp43-Strep (P53131 whole entry): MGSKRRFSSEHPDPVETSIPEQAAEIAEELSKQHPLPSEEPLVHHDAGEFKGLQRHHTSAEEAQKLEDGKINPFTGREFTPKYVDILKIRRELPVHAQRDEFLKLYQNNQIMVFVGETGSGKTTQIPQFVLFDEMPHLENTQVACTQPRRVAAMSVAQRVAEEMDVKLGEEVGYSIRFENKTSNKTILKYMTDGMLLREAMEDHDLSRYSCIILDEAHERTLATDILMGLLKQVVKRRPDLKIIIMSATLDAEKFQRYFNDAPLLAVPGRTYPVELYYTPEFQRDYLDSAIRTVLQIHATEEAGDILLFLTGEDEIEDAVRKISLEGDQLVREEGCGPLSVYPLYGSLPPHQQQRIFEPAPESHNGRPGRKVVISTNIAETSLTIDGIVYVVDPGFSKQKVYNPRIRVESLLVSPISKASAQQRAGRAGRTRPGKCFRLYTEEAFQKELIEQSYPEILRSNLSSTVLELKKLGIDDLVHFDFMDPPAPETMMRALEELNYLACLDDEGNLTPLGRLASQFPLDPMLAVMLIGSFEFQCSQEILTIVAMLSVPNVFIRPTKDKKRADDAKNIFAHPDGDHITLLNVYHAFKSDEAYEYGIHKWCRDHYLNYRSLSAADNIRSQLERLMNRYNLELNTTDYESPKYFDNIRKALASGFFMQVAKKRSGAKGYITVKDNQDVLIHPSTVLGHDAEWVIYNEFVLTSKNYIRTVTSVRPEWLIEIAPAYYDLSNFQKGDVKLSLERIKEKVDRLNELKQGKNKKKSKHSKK

Binder | Kd
B1 | 1490 ± 50 nM
B2 | 2240 ± 110 nM
